From the nanobody polyreactivity screen of Harvey et al. (2022)

Experiment: yeast display, Sf9 membrane polyspecificity reagent, FACS + sequencing; frameworks hold sequencing errors
Method in brief: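 Polyreactivity labels are assigned by the sorting gate from which each nanobody was recovered. The gates were low and high (top ~1%), set on anti-HA fluorescence for expression and streptavidin fluorescence for reagent binding. Before sorting, galactose-induced (36–48 hours) yeast display cells were stained for 1 hour at 4 °C with 10% biotinylated, detergent-solubilized Sf9 membrane reagent.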

Sequence | polyreactivity (PSR sort gate)
QVQLVESGGGLDQAGGSLRLSCAASGLISYRNAMGWYRQAPGKERELVAAISSDGSTYYADSVKGRFTISRDNAKNSVYLQMNSLKPEDTAVYYCNADVFRKFGSPSAYKSHRYDYWGQGTQVTVSS | low polyreactivity
QVQLVESGGGLDQAGGSLRLSCAASGLTFAYYTMGWSRQEPGKERELVADISRSGGSTYYADSVKGRFTISRDNAKNTVYLQMNSLKPEDTAVYYCAAYRYGSRYGYEYWGQGTQVTVSS | high polyreactivity
QVQLVESGGGLDQAGGSLRLSCAASGLTFGTYPMGWYRQAPGKETELVAAIRSGGSTNYADSVKGRFTISRDNAKNTVYLQMNSLKPEDTAVYYCNSVTVYYRKYEFWGQGTQVTVSS | high polyreactivity
QVQLVESGGGLDQAGGSLRLSCAASGLTFQLYTMGWYRQAHGKERELVAAISRSGTRTYYADSVKGRFTISLDNAKNTVYLQMNSLKPEDTAVYYCAARTDGYRNNYWGQGTQVTVSS | high polyreactivity
QVQLVESGGGLDQAGGSLRLSCAASGNTFHPYAMGWYRQAPGKERELVAAITKSGGSTYYADSVKGRFTISRDNAKKTVYLQMNSLKPEDTAVYYCNADDGVTEYDYWGQGTQVTVSS | low polyreactivity
QVQLVESGGGLDQAGGSLRLSCAASGRIFCQYAMGWYRQAPGKERELVAAMSRSGGSTYYAHSVKGRFTISRDNAKNTVYLQMTSLKPEDTAVYYCAARKASGDPGSAGRPEYYYWGQGNQVTVSS | high polyreactivity
QVQLVESGGGLDQAGGSLRLSCAASGRIIRFYAMAWYRQAPGKERELVAAISSRGGSTYYADSVKGRFTISRDNAKNTVYLQKNSLKPEDTAVYYCAKKTWRDYAYNYWGQGTQVTVSS | high polyreactivity
QVQLVESGGGLDQAGGSLRLSCAASGRISGYYDMVWYRQAPGKERELVATITSDGGTNYADSVKGRFTISRDNAKNCVYLQINSLKPEDTAVYYCAAYGWYTKWHFAYGYWGQGTQVTVSS | low polyreactivity
QVQLVESGGGLDQAGGSLRLSCAASGRTFNPYVLGWYRQAPGKERELVAVITSSGDSTYYADSVKGRFTISRDNAKNTVYLQMNSLKPEDTAVYYCNADYLYYDYDYWGQGTQVTVSS | high polyreactivity
QVQLVESGGGLDQAGGSLRLSCAASGRTFTGNAMGWYRQAPGKERELVAAISSRGSSTYYADSVKGRFTISRDNAKNTVYLQMNSLKPEDTAVYYCAAVWPRPKYVYESDYWGQGTQVTVSS | high polyreactivity
QVQLVESGGGLDQAGGSLRLSCAASGRTFYRNVMGWYRQAHGKERELVAAISSRGGSTYYADSVKGRFTISRDNAKNTVYLQMNSLKPEDTAVYYCAAYYYRRRYGGKYDYWGQGTQVTVSS | high polyreactivity
QVQLVESGGGLDQAGGSLRLSCAASGSIFDANAMVWYRQAPGKERELVAAITSSGGITYYADSVKGRFTISRDNAKNTVYLHLNSLKPADTAVYYCAAEYGYIDYSYLYWYDYWGQGTQVTVSS | high polyreactivity
QVQLVESGGGLDQAGGSLRLSCAASGSIFEPNAMVWYRQAPGKERELVAAITGGGGTNYADSVKGRFTLSRDNAKYTVYLQMNSLKPEDTAVYYCAKEVDHGDASDMDYWGQGTQVTVSS | low polyreactivity
QVQLVESGGGLDQAGGSLRLSCAASGSIFFTYVMGWYRQAPGKERQLVAAISSDDITNYADSVKGRFTISRDNAKNTVYLQMNSLKPEDTAVYYCNADTTLYPYYDYGYYDYDYWGQGTQVTVSS | low polyreactivity
QVQLVESGGGLDQAGGSLRLSCAASGSIFKLNARGWYREAPGKERELVAAITSVGRTYYADSVKGRFTISRDNAKKTVYLQMNSLKPEDTAVYYCGAARYGVYWYGYWGQGTQVTVSS | high polyreactivity
QVQLVESGGGLDQAGGSLRLSCAASGSIFNFYALGWYRQAPGKERELVAAISWSAGSTYYADSVKGRFTISRDYAKNTVYLQMNSLKPEDTAVYYCAADRYAYDWIQYYYHFLYDYWGQGTQVTVSS | low polyreactivity
QVQLVESGGGLDQAGGSLRLSCAASGSIFPFYAMGWYRQAPGKERELVAAISSRGGSTYYADSVKGRFTISRDNAKNTVYLQMNSLKPEDTAVYYCAARDYSIKVRLGYWGQGTHVTVSS | low polyreactivity
